Experimental data taken from patent US20230391850A1.

How the values were obtained:
[1] = target: human polyclonal IgG (Gammanorm) (human); test: Biacore SPR, remaining IgG binding capacity after 100 NaOH cycles as a ratio to the reference ligand SEQ ID NO: 12
[2] = target: human polyclonal IgG (Gammanorm) (human); test: Biacore SPR, ligand on CM5 chip, 1 mg/ml human polyclonal IgG flowed over; signal left after 100 cycles of 10 min in 0.5 M NaOH
[3] = target: human polyclonal IgG (Gammanorm) (human); test: Biacore SPR, reference ligand on CM5 chip, 1 mg/ml human polyclonal IgG; signal left after 100 cycles of 10 min in 0.5 M NaOH (run beside SEQ ID NO 9)
[4] = target: human polyclonal IgG (Gammanorm) (human); test: Biacore SPR, reference ligand on CM5 chip, 1 mg/ml human polyclonal IgG; signal left after 100 cycles of 10 min in 0.5 M NaOH (run beside SEQ ID NO 8)

| Substance | Capacity relative to Ref [1] | Capacity after 100 cycles (remaining IgG binding capacity) [2] [%] | Reference capacity after 100 cycles (remaining IgG binding capacity) [3] [%] | Reference capacity after 100 cycles (remaining IgG binding capacity) [4] [%] |
| --- | --- | --- | --- | --- |
| Zvar(Q9A, N11R, Q40V, A42K, N43A, L44I)1 (designed binder) | 1.14 | 74 |  |  |
| Zvar(Q9A,N11E,Q40V,A42K,N43A,L44Di (SEQ ID NO: 12) (designed binder) |  |  | 64 | 65 |
| Zvar(Q9W, N11E, Q40V, A42K, N43A, L44I)1 (designed binder) | 1.09 | 70 |  |  |
